The record followed here is article PMC3458536 (Nucleic Acids Research, 2012).

B2: GST-U2AF35 (natural protein)
chain: MAEYLASIFGTEKDKVNCSFYFKIGACRHGDRCSRLHNKPTFSQTIALLNIYRNPQNSSQSADGLRCAVSDVEMQEHYDEFFEEVFTEMEEKYGEVEEMNVCDNLGDHLVGNVYVKFRREEDAEKAVIDLNNRWFNGQPIHAELSPVTDFREACCRQYEMGECTRGGFCNFMHLKPISRELRRELYGRRRKKHRSRSRSRERRSRSRDRGRGGGGGGGGGGGGRERDRRRSRDRERSGRF

Holding throughout (assay): pull-down
For one assay, the target named is GST-U2AF65 (UniProt P26368 1-475).
In the assay “GST-U2AF35” the target is B2.
The target in assay [1] is His-YB-1 (recombinant His-tagged full-length YB-1) (human, UniProt P67809 1-324).

GST-U2AF65, sequence (P26368 whole entry, one chain of several): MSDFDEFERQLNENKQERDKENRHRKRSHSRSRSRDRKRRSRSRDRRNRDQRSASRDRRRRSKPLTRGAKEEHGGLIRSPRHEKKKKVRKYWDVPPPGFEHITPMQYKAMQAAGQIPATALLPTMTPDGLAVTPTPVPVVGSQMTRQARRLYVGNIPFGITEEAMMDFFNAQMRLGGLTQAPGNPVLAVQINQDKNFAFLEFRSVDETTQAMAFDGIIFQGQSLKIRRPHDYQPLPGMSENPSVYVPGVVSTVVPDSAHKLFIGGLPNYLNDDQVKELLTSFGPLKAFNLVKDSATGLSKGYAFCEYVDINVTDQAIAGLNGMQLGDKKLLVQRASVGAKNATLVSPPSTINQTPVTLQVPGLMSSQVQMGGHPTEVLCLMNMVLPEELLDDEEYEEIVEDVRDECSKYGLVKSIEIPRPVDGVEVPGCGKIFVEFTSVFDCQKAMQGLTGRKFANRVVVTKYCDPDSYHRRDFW

B1: His-C (C-terminal B/A repeat domain of YB-1, amino acids 128-324) (domain or fragment)
chain: PGGVPVQGSKYAADRNHYRRYPRRRGPPRNYQQNYQNSESGEKNEGSESAPEGQAQQRRPYRRRRFPPYYMRRPYGRRPQYSNPPVQGEVMEGADNQGAGEQGRPVRQNMYRGYRPRFRRGPPRQRQPREDGNEEDKENQGDETQGQQPPQRRYRRNFNYRRRRPENPKPQDGKETKAADPPAENSSAPEAEQGGAE
In the case of B1, the binding result with GST-U2AF65 and with GST-U2AF35 was “binds” each time. With B2, the binding result in assay [1] is reported as “binds”.
